Laboratory results: paper PMC5499601 (Nucleic Acids Research, 2017)
Residue numbers refer to the chain shown, from its start.

Columns and labels:
Test in all cases: EMSA
BsSpo0J N112S = target: T1, BsSpo0J N112S (UniProt P26497 1-282, N112S)
T1 sequence: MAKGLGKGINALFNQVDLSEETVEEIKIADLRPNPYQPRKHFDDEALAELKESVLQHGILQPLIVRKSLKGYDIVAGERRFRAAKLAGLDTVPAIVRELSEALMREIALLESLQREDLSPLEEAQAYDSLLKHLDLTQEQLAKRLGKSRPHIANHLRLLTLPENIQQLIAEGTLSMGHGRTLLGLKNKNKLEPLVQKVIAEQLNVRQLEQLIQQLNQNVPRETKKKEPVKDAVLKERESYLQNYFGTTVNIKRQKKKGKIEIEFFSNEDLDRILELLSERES

BsSpo0J R80A = target: T2, BsSpo0J R80A (UniProt P26497 1-282, R80A)
T2 sequence: T1 sequence with R80A, S112N

BsSpo0J R105E = target: T3, BsSpo0J R105E (UniProt P26497 1-282, R105E)
T3 sequence: T1 sequence with R105E, S112N

BsSpo0J R82A = target: T4, BsSpo0J R82A (UniProt P26497 1-282, R82A)
T4 sequence: T1 sequence with R82A, S112N

BsSpo0J Q140R = target: T5, BsSpo0J Q140R (UniProt P26497 1-282, Q140R)
T5 sequence: T1 sequence with S112N, Q140R

BsSpo0J L60E = target: T6, BsSpo0J L60E (UniProt P26497 1-282, L60E)
T6 sequence: T1 sequence with L60E, S112N

BsSpo0J F81A = target: T7, BsSpo0J F81A (UniProt P26497 1-282, F81A)
T7 sequence: T1 sequence with F81A, S112N

BsSpo0J WT = target: T8, BsSpo0J WT (UniProt P26497 1-282)
T8 sequence: T1 sequence with S112N

Measured: binding result

B1: 39-bp parS (dsDNA)
DNA 1: CAGTTGAATCAGAATGTTCCACGTGAAACAAAGAAAAAA
DNA 2: TTTTTTCTTTGTTTCACGTGGAACATTCTGATTCAACTG
not listed: BsSpo0J WT
binds: all other assays above

B2: 24-bp parS (dsDNA)
DNA 1: AGAATGTTCCACGTGAAACAAAGA
DNA 2: TCTTTGTTTCACGTGGAACATTCT
binds: BsSpo0J WT
